T1: TBPC, 181 C-terminal residues of human TATA box binding protein (TBP) (human, UniProt P20226 159-339)
T1 chain: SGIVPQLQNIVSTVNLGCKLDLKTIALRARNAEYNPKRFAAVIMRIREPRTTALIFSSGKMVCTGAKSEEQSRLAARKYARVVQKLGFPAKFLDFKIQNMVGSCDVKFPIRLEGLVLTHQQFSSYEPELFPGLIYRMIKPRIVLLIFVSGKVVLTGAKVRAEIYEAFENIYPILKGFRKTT

B1: TBPC, 181 C-terminal residues of human TATA box binding protein (TBP) (domain or fragment, UniProt P20226 159-339, looked up)
chain: T1 chain
notes: source: E. coli BL21(DE3), purified (NTA column, imidazole step-gradient)
B2: glucocorticoid receptor (GR) N-terminal activation function domain AF1 (domain or fragment, human, UniProt P04150 77-262, looked up)
chain: DLSKAVSLSMGLYMGETETKVMGNDLGFPQQGQISLSSGETDLKLLEESIANLNRSTSVPENPKSSASTAVSAAPTEKEFPKTHSDVSSEQQHLKGQTGTNGGNVKLYTTDQSTFDILQDLEFSSGSPGKETNESPWRSDLLIDENCLLSPLAGEDDSFLLEGNSNEDCKPLILPDTKPKIKDNGD
notes: human glucocorticoid receptor, AF1 domain, amino acid residues 77-262; made from human GR cDNA digested with BglII; also called GR AF1
B3: GR AF1:TBPC complex (complex, human)
chain 1: B2 chain
chain 2: T1 chain
notes: human glucocorticoid receptor, AF1 domain, amino acid residues 77-262; as m1; as m2; AF1, TBPC and the nuclear extract were mixed at once; only AF1 was detected on the blot; also called AF1 complexed with TBPC; source: purified AF1 and purified TBPC (10 µg) mixed together with HeLa nuclear extract

Legend:
[1] = target: B2; test: circular dichroism titration; far-UV CD at 22°C, AF1 fixed at 4.5 µM, TBPC varied (AF1:TBPC 1:0.25 to 1:2); ellipticity at 220 nm, experimental against theoretical sum; conditions: both partners purified
[2] = target: B2; test: SPR; TBPc immobilised on C1 chip (Fc2, 200-250 RU, through ionic interaction), AF1 as analyte 0.2-6.4 µM, multi-cycle kinetics, room temperature, 0.01 M HEPES pH 7.4, 0.15 M NaCl, 50 µM EDTA, 0.05% Tween-20; 1:1 Langmuir model, KD = kd/ka; conditions: both partners purified
[3] = target: T1, TBPC, 181 C-terminal residues of human …; test: SPR
[4] = target: B1; test: SPR; TBPc immobilised on C1 chip (Fc2, 200-250 RU, through ionic interaction), AF1 as analyte 0.2-6.4 µM, multi-cycle kinetics, room temperature, 0.01 M HEPES pH 7.4, 0.15 M NaCl, 50 µM EDTA, 0.05% Tween-20; 1:1 Langmuir model, KD = kd/ka; conditions: both partners purified
[5] = target: T2, steroid receptor coactivator-1 (SRC-1) (human (endogenous in HeLa), UniProt Q15788 1-1441); test: co-IP; SRC-1 antibody on protein A/G-agarose beads; HeLa nuclear extract (0.5 mg total protein) mixed with 10 µg purified AF1 and/or TBPC, 4°C; blot with GR AF1 antibody; conditions: one partner purified
T2 construct: source: endogenous, HeLa nuclear extract
T2 sequence (Q15788 whole entry): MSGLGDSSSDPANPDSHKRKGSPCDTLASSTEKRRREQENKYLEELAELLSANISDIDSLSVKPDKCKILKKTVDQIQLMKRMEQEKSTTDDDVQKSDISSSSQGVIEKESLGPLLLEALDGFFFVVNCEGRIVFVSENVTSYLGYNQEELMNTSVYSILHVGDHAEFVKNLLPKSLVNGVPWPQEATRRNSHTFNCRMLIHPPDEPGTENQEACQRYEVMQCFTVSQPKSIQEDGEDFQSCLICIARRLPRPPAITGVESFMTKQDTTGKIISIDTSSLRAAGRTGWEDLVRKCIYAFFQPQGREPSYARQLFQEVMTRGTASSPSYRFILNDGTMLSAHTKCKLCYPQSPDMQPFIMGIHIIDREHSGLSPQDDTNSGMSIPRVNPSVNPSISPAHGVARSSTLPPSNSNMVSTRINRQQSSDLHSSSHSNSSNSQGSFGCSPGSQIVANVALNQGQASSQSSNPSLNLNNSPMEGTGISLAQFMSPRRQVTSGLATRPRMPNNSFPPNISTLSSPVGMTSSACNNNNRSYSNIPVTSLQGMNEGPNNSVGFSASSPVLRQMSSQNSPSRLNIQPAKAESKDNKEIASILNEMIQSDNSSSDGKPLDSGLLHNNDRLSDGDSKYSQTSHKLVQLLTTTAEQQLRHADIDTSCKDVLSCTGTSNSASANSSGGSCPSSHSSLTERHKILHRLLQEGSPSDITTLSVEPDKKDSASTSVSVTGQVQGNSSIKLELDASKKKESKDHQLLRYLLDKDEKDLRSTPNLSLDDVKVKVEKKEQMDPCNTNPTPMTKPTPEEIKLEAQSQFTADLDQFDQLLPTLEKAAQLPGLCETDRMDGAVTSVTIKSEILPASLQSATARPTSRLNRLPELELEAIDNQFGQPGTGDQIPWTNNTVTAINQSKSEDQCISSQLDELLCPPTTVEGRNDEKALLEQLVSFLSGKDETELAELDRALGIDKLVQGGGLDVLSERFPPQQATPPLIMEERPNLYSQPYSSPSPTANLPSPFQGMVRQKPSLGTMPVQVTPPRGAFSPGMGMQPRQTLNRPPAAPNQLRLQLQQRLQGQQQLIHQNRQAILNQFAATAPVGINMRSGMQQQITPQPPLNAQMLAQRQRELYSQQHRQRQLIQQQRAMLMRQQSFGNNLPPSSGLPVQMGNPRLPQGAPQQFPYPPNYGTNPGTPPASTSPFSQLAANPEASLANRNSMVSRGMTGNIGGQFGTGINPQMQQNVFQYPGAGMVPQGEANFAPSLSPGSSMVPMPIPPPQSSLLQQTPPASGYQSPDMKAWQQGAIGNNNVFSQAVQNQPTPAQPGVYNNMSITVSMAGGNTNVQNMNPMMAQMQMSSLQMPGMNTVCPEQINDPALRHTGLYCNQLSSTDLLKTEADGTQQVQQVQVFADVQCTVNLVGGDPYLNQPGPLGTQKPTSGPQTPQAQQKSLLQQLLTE

## B1
[1]
  stoichiometry N: ~1
[2]
  Kd: 460 nM

## B2
[3]
  koff: 0.00143 s⁻¹
[4]
  stoichiometry N: 1

## B3
[5]
  fold increase against AF1 alone: ~8 fold

From PMC3131385, “TBP Binding-Induced Folding of the Glucocorticoid Receptor AF1 Domain Facilitates Its Interaction with Steroid Receptor Coactivator-1” (PLoS ONE, 2011)
